The text below walks through data of paper PMC3906126 (Biochemistry, 2013).

Common to all, as to assay: ITC
Experiment [1] addresses T1, WW1 domain of WWOX (residues 16–50) (human, UniProt Q9NZC7 16-50).
T1 chain (looked up): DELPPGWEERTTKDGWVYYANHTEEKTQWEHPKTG

Experiment [2] addresses WW2W domain of WWOX (WW2 domain, residues 57–91, with the Y85W substitution) (human, UniProt Q9NZC7 57-91, Y85W).
Experiment [3] concerns the target T2, WW1–WW2 tandem module of WWOX (residues 16–91) (human, UniProt Q9NZC7 16-91).
T2 sequence (looked up): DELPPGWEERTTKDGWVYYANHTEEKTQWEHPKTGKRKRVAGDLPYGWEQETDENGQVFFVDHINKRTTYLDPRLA

The Kd is the free concentration of one partner at which half of the binding sites on the other are occupied at equilibrium, for simple one-to-one binding. Read a low Kd as higher affinity.

Sequence of WW2W domain of WWOX (WW2 domain, residues 57–91, with the Y85W substitution) (Q9NZC7 57-91 Y85W): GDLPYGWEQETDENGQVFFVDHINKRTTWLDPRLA

Turning to FNIPPPIYTSRA [ErbB4_PY1 peptide (12-mer spanning the PY1 PPXY motif of the ICD of ErbB4)], the Kd in experiment [1] was 383 µM; in experiment [2], 680 µM; in experiment [3], 170 µM. Further, the dH in experiment [1] is -6.88 kcal/mol; in experiment [2], -4.74 kcal/mol; in experiment [3], -7.25 kcal/mol.
GHSPPPAYTPMS [ErbB4_PY2 peptide (12-mer spanning the PY2 PPXY motif of the ICD of ErbB4)]: the Kd in experiment [1] was 362 µM; in experiment [2] it was 620 µM; in experiment [3], 175 µM. Further, the dH in experiment [1] was -3.66 kcal/mol; in experiment [2] it was -8.08 kcal/mol; in experiment [3], -4.88 kcal/mol.
